How the values were obtained:
[1] = molecular target: HER2-ECD (human epidermal growth factor receptor 2-extracellular domain) (human) (UniProt P04626)
[2] = molecular target: HER2 on the surface of N87 (NCI-N87) human gastric carcinoma cells (human) (UniProt P04626); assay: cell-based or functional assay

Substance | EC50 [1] [nM] | IC50 (pM), cytotoxicity on N87 cells (WST-1) [2] [pM]
scFv(trastuzumab)-PE38KDEL | 0.15 | –
IgG1(trastuzumab)-AL1-PE38KDEL (antibody) | – | 498
